The values below come from patent publication US20030158083A1, “Method of effecting angiogenesis by modulating the function of a novel endothelia phosphatase” (The Procter & Gamble Company, priority 2002, published 2003).

The subject of one data set is Tie 2. Description: GST pull-down association assay, Tie 2. The settings on record: wild-type and kinase-inactive mutant. Type of data set: binding, human. An excerpt:
(§1) Recombinant VEGFR-1 kinase (wild-type and K862R mutant), VEGFR2 kinase (wild-type and K870R mutant), Tie1 kinase (wild-type and K871R mutant), and Tie2 kinase (wild-type and K856R mutant) were expressed as glutathione S-transferase (GST) fusion proteins in Sf9 cells using a baculovirus expression system. Briefly, the intracellular domain of each receptor tyrosine kinase was generated as an in-frame GST fusion using the pAcGHLT baculovirus transfer vector (Pharmingen, San Diego, Calif.). Each baculovirus transfer vector construct was cotransfected with BaculoGold (Pharmingen, San Diego, Calif.) linearized AcNPV baculovirus DNA into Sf9 cells for the generation of recombinant baculoviruses. Five days post-transfection, recombinant baculoviruses were harvested and amplified by re-infection of Sf9 cells. Each amplified baculovirus was then used to infect Sf9 cells for the expression of the recombinant kinases. […]
(§2) The immobilized, autophosphorylated kinases were then incubated with HEK 293 cell lysates which overexpressed either the KAPh SH2 domain or KAPh full-length protein. […] KAPh protein that associated with the recombinant kinases was analyzed by Western blot using a chemiluminescence detection system (Amersham Pharmacia, Piscataway, N.J.).

The target of the next data set is T1, human VEGF receptor-1 (Homo sapiens, UniProt P17948).
T1 construct: the intracellular domain of each receptor tyrosine kinase was generated as an in-frame GST fusion; made in house; host or cells: Sf9 insect cells (baculovirus)
T1 sequence (P17948 781-1338 limits assumed): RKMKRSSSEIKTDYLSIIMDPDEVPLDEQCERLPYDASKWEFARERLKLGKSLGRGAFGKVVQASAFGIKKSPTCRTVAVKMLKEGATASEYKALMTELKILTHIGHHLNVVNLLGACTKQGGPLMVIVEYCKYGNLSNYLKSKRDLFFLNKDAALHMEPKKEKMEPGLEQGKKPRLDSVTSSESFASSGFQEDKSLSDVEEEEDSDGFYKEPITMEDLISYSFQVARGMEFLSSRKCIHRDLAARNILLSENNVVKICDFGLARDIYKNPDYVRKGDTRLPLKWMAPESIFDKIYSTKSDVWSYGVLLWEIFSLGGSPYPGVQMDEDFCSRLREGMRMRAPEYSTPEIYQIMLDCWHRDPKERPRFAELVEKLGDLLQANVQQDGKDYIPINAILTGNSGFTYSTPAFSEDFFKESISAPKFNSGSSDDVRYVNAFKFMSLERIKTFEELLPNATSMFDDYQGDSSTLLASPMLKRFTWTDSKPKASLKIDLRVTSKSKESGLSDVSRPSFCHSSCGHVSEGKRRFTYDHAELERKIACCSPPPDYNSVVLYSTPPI
Description: GST pull-down association assay, VEGFR-1. The data set is classed as binding. The conditions noted are these: HEK 293 lysate expressing His-tagged full-length KAPh.
From the text: as §1, §2

Data set [1] concerns the target T2, human VEGF receptor-2 (KDR) (Homo sapiens, UniProt P35968).
T2 construct: the intracellular domain of each receptor tyrosine kinase was generated as an in-frame GST fusion; made in house; host or cells: Sf9 insect cells (baculovirus)
Description: GST pull-down association assay, VEGFR2. Type of data set: binding. The settings on record: HEK 293 lysate expressing His-tagged protein; Western blot. For orientation: Immunoblotting shows a protein as a band on a membrane.

Data set [2] addresses T3, human VEGF receptor-2 (KDR) (Homo sapiens, UniProt P35968, Y1175F).
T3 construct: the intracellular domain of each receptor tyrosine kinase was generated as an in-frame GST fusion; made in house; host or cells: Sf9 insect cells (baculovirus)
Description: GST pull-down association assay, VEGFR2. The settings on record: GST fusion Y1175F versus wild-type. The data set is classed as binding.

Data set [3] concerns the target T4, human VEGF receptor-2 (KDR) (Homo sapiens, UniProt P35968, Y951F).
T4 construct: the intracellular domain of each receptor tyrosine kinase was generated as an in-frame GST fusion; made in house; host or cells: Sf9 insect cells (baculovirus)
Description: GST pull-down association assay, VEGFR2. The data set is classed as binding. The conditions noted are these: GST fusion Y951F versus wild-type.

Another data set addresses T5, VEGF receptor-2 (Homo sapiens, UniProt P35968).
T5 construct: Co-immunoprecipitation of full-length KAPh with full-length VEGF receptor-2; expressed in transfected cells
Description: Dephosphorylation of 32P-labeled VEGF receptor-2. Type of data set: biochemical. The settings on record: incubated overnight; data not shown.

A further data set has as its system Tie 1. Description: GST pull-down association assay, Tie 1. Type of data set: binding, human. The settings on record: wild-type and kinase-inactive mutant.
From the text: as §1, §2

Data set [4] in a line: Phosphatase activity with fluorogenic substrate DiFMUP. Type of data set: biochemical. The procedure: Purified, recombinant KAPh phosphatase domain (amino acids 83-464 SEQ ID NO 4) (100 μg/mL) and full-length PTEN (amino acids 1-403) (100 μg/mL) were each mixed with a fluorogenic phosphatase substrate 6,8-difluoro-4-methylumbelliferyl phosphate (DiFMUP) (Molecular Probes, Eugene, Oreg.) at a final concentration of a 100 μM in assay buffer (10 mM sodium acetate, pH 6.0, 150 mM NaCl, 5 mM DTT). Following incubation at ambient temperature for 15 or 60 min., the fluorescence intensity of the 6,8-difluoro-4-methylumbelliferone (DiFMU) product was measured in triplicate and used as an assessment of phosphatase activity. A Victor 5 microplate reader from Wallac (Turku, Finland) was used to read the fluorescence intensity from 384-well microplates (Corning Inc., Corning, N.Y.).

Data set [5] can be described thus: Peptide phosphatase assay (BIOMOL green). The data set is classed as biochemical. The settings on record: any peptide substrates examined; data not shown.

T4 sequence (P35968 790-1356 Y951F): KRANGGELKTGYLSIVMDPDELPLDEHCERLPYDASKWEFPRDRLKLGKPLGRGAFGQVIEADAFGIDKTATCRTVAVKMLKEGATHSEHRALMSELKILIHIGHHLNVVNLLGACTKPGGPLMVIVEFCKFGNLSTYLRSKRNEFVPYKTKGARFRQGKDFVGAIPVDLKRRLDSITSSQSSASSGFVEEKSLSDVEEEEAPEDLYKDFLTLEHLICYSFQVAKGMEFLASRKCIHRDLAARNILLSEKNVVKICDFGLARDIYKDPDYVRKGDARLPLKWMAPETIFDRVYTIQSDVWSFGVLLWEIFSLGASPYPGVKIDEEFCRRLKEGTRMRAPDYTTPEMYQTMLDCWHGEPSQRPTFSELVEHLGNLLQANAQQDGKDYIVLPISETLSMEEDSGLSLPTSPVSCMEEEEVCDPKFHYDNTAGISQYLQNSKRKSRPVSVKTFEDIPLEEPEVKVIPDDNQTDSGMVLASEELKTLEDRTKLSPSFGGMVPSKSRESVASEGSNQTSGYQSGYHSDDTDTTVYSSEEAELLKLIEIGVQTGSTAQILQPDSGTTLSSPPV
T5 sequence (P35968 20-1356): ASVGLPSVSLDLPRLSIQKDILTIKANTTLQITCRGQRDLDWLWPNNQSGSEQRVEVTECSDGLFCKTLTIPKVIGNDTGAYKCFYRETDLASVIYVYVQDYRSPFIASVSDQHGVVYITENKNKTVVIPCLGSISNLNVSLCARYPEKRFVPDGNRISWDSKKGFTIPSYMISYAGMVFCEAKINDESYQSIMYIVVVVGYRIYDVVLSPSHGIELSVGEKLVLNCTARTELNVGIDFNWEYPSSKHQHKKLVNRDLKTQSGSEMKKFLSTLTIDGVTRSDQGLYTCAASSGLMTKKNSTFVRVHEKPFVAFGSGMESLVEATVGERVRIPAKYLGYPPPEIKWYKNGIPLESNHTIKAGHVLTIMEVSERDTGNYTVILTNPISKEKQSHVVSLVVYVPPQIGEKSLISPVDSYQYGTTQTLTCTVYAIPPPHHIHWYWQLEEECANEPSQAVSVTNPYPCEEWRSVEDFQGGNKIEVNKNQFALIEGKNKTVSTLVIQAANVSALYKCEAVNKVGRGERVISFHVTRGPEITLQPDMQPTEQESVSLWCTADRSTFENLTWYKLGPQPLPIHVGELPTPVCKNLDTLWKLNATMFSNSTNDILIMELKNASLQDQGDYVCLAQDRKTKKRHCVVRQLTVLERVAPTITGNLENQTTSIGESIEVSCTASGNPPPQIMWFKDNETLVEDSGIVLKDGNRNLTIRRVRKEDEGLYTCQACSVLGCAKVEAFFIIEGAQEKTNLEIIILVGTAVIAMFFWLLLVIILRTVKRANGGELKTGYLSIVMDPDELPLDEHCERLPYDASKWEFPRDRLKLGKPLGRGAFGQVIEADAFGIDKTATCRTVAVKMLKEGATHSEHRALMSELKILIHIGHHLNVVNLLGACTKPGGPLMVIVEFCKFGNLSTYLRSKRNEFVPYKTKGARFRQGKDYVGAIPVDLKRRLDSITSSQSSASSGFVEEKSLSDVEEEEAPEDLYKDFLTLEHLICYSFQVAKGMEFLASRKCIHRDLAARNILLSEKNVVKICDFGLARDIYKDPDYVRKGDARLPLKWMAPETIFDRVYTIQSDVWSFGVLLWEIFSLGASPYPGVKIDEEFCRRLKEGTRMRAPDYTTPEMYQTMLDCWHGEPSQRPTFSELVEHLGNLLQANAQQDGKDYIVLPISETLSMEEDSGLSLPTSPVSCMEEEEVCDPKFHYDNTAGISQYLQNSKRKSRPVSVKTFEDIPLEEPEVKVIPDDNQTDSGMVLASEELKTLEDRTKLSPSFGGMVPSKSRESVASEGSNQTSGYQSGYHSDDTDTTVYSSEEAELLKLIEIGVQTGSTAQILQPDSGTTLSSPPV
T2 sequence (P35968 790-1356): as the sequence (P35968 790-1356 Y951F) above, with F162Y counted along it
T3 sequence (P35968 790-1356 Y1175F): as the sequence (P35968 790-1356 Y951F) above, with F162Y, Y386F counted along it

B1: KAPh: novel human KDR Associated Phosphatase protein, full-length sequence SEQ ID NOS 1 and 2 (protein, listed as Homo sapiens)
chain: MKPRKAEPHSFREKVFRKKPPVCAVCKVTIDGTGVSCRVCKVATHRKCEAKVTSACQALPPVELRRNTAPVRRIEHLGSTKSLNHSKQRSTLPRSFSLDPLMERRWDLDLTYVTERILAAAFPARPDEQRHRGHLRELAHVLQSKHRDKYLLFNLSEKRHDLTRLNPKVQDFGWPELHAPPLDKLCSICKAMETWLSADPQHVVVLYCKGNKGKLGVIVSAYMHYSKISAGADQALATLTMRKFCEDKVATELQPSQRRYISYFSGLLSGSIRMNSSPLFLHYVLIPMLPAFEPGTGFQPFLKIYQSMQLVYTSGVYHIAGPGPQQLCISLEPALLLKGDVMVTCYHKGGRGTDRTLVFRVQFHTCTIHGPQLTFPKDQLDEAWTDERFPFQASVEFVFSSSPEKIKGSTPRNDPSVSVDYNTTEPAVRWDSYENFNQHHEDSVDGSLTHTRGPLDGSPYAQVQRPPRQTPPAPSPEPPPPPMLSVSSDSGHSSTLTTEPAAESPGRPPPTAAERQELDRLLGGCGVASGGRGAGRETAILDDEEQPTVGGGPHLGVYPGHRPGLSRHCSCRQGYREPCGVPNGGYYRPEGTLERRRLAYGGYEGSPQGYAEASMEKRRLCRSLSEGLYPYPPEMGKPATGDFGYRAPGYREVVILEDPGLPALYPCPACEEKLALPTAALYGLRLEREAGEGWASEAGKPLLHPVRPGHPLPLLLPACGHHHAPMPDYSCLKPPKAGEEGHEGCSYTMCPEGRYGHPGYPALVTYSYGGAVPSYCPAYGRVPHSCGSPGEGRGYPSPGAHSPRAGSISPGSPPYPQSRKLSYEIPTEEGGDRYPLPGHLASAGPLASAESLEPVSWREGPSGHSTLPRSPRDAPCSASSELSGPSTPLHTSSPVQGKESTRRQDTRSPTSAPTQRLSPGEALPPVSQAGTGKAPELPSGSGPEPLAPSPVSPTFPPSSPSDWPQERSPGGHSDGASPRSPVPTTLPGLRHAPWQGPRGPPDSPDGSPLTPVPSQMPWLVASPEPPQSSPTPAFPLAASYDTNGLSQPPLPEKRHLPGPGQQPGPWGPEQASSPARGISHHVTFAPLLSDNVPQTPEPPTQESQSNVKFVQDTSKFWYKPHLSRDQAIALLKDKDPGAFLIRDSHSFQGAYGLALKVATPPPSAQPWKGDPVEQLVRHFLIETGPKGVKIKGCPSEPYFGSLSALVSQHSISPISLPCCLRILSKDPLEETPEAPVPTNMSTAADLLRQGAACSVLYLTSVETESLTGPQAVARASSAALSCSPRPTPAVVHFKVSAQGITLTDNQRKLFFRRHYPVNSITFSSTDPQDRRWTNPDGTTSKIFGFVAKKPGSPWENVCHLFAELDPDQPAGAIVTFITKVLLGQRK
Regarding B1, the “interaction with GST Tie 2” value in the data set on Tie 2 was “no interaction”. For the same molecule, the “interaction with GST VEGFR-1, wild-type versus K862R” value with human VEGF receptor-1 is recorded as “weak, but reproducible, autophosphorylation-dependent interaction”. In addition, the “interaction with GST VEGFR2, wild-type versus catalytically inactive K870R” value in data set [1] was “interacted in an autophosphorylation-dependent manner”. Besides, in data set [2], the “interaction with VEGFR2 Y1175F mutant” value is given as “nearly abolished”. Besides, the “association with VEGFR2 Y951F mutant” value in [3] is on record as “no significant change in association”. In addition, the “change in phosphorylation of 32P-labeled VEGF receptor-2” value in the data set with VEGF receptor-2 was “unable to detect a change in phosphorylation”. Also, in the data set with Tie 1, the “interaction with GST Tie 1” value was “no interaction”. Further, the “fluorescent product (DiFMU) generated, fold over buffer control” value in data set [4] (100 μg/mL protein, 100 μM DiFMUP, pH 6.0, ambient temperature, 60 min incubation) is given as around 10 fold. Further, the “phosphatase activity against DiFMUP relative to PTEN” value in data set [4] (KAPh versus PTEN) is 1- to 2 fold. Besides, the “phosphatase activity using peptide substrates” value in [5] is listed as “unable to detect significant, reproducible phosphatase activity”.
